{"source": "patent US20130131322A1", "about": "(MEDICAL AND BIOLOGICAL LABORATORIES, published 2013)", "binders": {"B1": {"name": "MBL016-8 (antibody, mouse IgG2a, V domains shown)", "VH": "VQLQQSGAELVRPGASVKLSCTASGFNIKDDYMYWVKQRPEQGLEWIGRIDPANGNTKYAPKFQDKATITADTSSNTAYLHLSSLTSEDTAVFYCAYRRAYWGQGTLVTVSA", "VL": "DIQMTQSPSSLSASLGGKVTITCKASQDINKYIAWYQHKPGKGPRLFIHYTSKLQPGIPSRFSGSGSGRDYSFSISNLEPEDIATYYCLQYDNLLYTFGGGTKLEIK"}, "B2": {"name": "MBL018-1 (antibody, mouse IgG1, V domains shown)", "VH": "EVQLQQSGTVLTRPGASVKMSCKASGYTFTNFWIHWVKQRPGQGLDWIGAIYPGNTNTDYNQKFQGKAKLTAVSSASTAYMELSSLTNEDSAVYYCTRGGAMDYWGQGTSVTVSS", "VL": "IVMTQTPKLLPVSAGDRVTMTCKASQSVDNSVAWYQQKPGQSPKLLIFYASNHYTGVPDRFTASGSGTDFTFTISSVQVEDLAVYFCQQHFSSPRTFGGGTKLEIR"}, "B3": {"name": "MBL144-1 (antibody, mouse IgG1, V domains shown)", "VH": "VQLQESGPGLAKPSQTLSLTCSVTGYSITSDYWNWIRKFPGNKLEYMGYISYSGSTYYNPSLKSRISITRDTSKNQYYLQLNSVTTEDTATYYCARSYDGICFDNWGQGTTLTVSS", "VL": "DILMTQSPATLSVTPGETVSLSCRASQNTYKNLHWYQQKSHGTPKLLIKYASAPISGIPSRFTGSGSGTDYTLSINSVKPEDEGIYYCLQGYSMPWTFGGGTKLEIK"}, "B4": {"name": "MBL292-1 (antibody, mouse IgG1, V domains shown)", "VH": "VQLQQSGAELVRPGASVKLSCTASGFNIKDDYMHWMKQRPEQGLEWIGRIDPANGNTKYAPKFQDKATITADTSSNTAYLQLSSLTSEDTAVYYCSRMGLLRGYWGQGTTLTVSS", "VL": "IQMTQSSSSLSVSLGDRVTITCKASVHINSWLAWYQQKPGNAPRLLISGATNLKTGVPSRFSGSASGKDYTLSITSLQTEDVATYYCQQYWDTPWTFGGGTKLEIK"}, "B5": {"name": "MBL184-6 (antibody, mouse IgG1, V domains shown)", "VH": "EVQLQQSGAELVRPGASVKLSCTVSGFNIKDDYMHWVKQRPEQGLEWIGRIDPANGHTKYAPKFQDKATITADTSSNTAYLQFSSLTSEDTAVYYCTRMGLRRGYWGQGTTLTVSS", "VL": "B4 VL with V26E, S73N, D92G"}, "B6": {"name": "MBL352-34 (antibody, mouse IgG1, V domains shown)", "VH": "B4 VH with M36V, N56H, L82F, S96T, L101R", "VL": "B4 VL with V26E, D92G"}, "B7": {"name": "MBL259-3 (antibody, mouse IgG2a, V domains shown)", "VH": "VQLQQSGAELVRPGASVKLSCTASDFNIKDDYMHWMKQRPEQGLEWIGRIDPANGNTKYAPKFQDKATMTADTSSNTAYLQFSSLTSEDTAVYYCATSWGFPYWGQGTLVTVSA", "VL": "DIVMTQAAPSVPVTPGESVSISCRSSKSLLHRNGNTYLYWFLQRPGQSPQLLIYRMSNLASGVPDRFSGSGSGTAFTLRISRVEAEDVGVYYCLQHLEYPYTFGSGTKLEIK"}, "B8": {"name": "MBL009-15 (antibody, mouse IgG1, V domains shown)", "VH": "VQLQESGPGLVKPSQSLSLTCTVTGYSITSDYAWNWIRQFPGNKLEWMGYISYSGSTSYNPSLKSRISITRDTSKNQFFLQLNSVTTEDTATYYCARGGITRFAYWGQGTLVTVSA", "VL": "DIQMTQTTSSLSASLGDRLTISCRASQDIRNYLNWYQQKPDGTVKLLIYYTSRLHSGVPSRFSGSGSGTDYSLTISNLEQEDIATYFCQQGNTLPWTFGGGTKLEIK"}, "B9": {"name": "humanized chimeric anti-TGF-α antibody of MBL016-8 (antibody, human IgG1, V domains shown)", "VH": "B1 VH", "VL": "B1 VL", "notes": "tested as 293T culture supernatant; also called recombinant antibody MBL016-8"}, "B10": {"name": "humanized chimeric anti-TGF-α antibody of MBL259-3 (antibody, human IgG1, V domains shown)", "VH": "B7 VH", "VL": "B7 VL", "notes": "tested as 293T culture supernatant; also called recombinant antibody MBL259-3"}, "B11": {"name": "humanized chimeric anti-TGF-α antibody of MBL018-1 (antibody, human IgG1, V domains shown)", "VH": "B2 VH", "VL": "B2 VL", "notes": "tested as 293T culture supernatant; also called recombinant antibody MBL018-1"}, "B12": {"name": "humanized chimeric anti-TGF-α antibody of MBL009-15 (antibody, human IgG1, V domains shown)", "VH": "B8 VH", "VL": "B8 VL", "notes": "tested as 293T culture supernatant; also called recombinant antibody MBL009-15"}, "B13": {"name": "humanized chimeric anti-TGF-α antibody of MBL144-1 (antibody, human IgG1, V domains shown)", "VH": "B3 VH", "VL": "B3 VL", "notes": "tested as 293T culture supernatant; also called recombinant antibody MBL144-1"}, "B14": {"name": "humanized chimeric anti-TGF-α antibody of MBL184-6 (antibody, human IgG1, V domains shown)", "VH": "B5 VH", "VL": "B4 VL with V26E, S73N, D92G", "notes": "tested as 293T culture supernatant; also called recombinant antibody MBL184-6"}, "B15": {"name": "humanized chimeric anti-TGF-α antibody of MBL292-1 (antibody, human IgG1, V domains shown)", "VH": "B4 VH", "VL": "B4 VL", "notes": "tested as 293T culture supernatant; also called recombinant antibody MBL292-1"}, "B16": {"name": "humanized chimeric anti-TGF-α antibody of MBL352-34 (antibody, human IgG1, V domains shown)", "VH": "B4 VH with M36V, N56H, L82F, S96T, L101R", "VL": "B4 VL with V26E, D92G", "notes": "tested as 293T culture supernatant; also called recombinant antibody MBL352-34"}}, "note": "Where a chain is given by its changes, count along the chain named."}
{"target": "commercially-available secreted TGF-α biosynthesized by Escherichia coli (R&D systems Inc.) (human, UniProt P01135 40-89)", "experiment": "cell-based or functional assay", "units": {"inhibition of EGFR tyrosine phosphorylation (P-Tyr1173) in A431 cells, antibody at 10 µg/mL": "%"}}
{"binder": "B1", "inhibition of EGFR tyrosine phosphorylation (P-Tyr1173) in A431 cells, antibody at 10 µg/mL": "≥ 70"}
{"binder": "B2", "inhibition of EGFR tyrosine phosphorylation (P-Tyr1173) in A431 cells, antibody at 10 µg/mL": "≥ 70"}
{"binder": "B3", "inhibition of EGFR tyrosine phosphorylation (P-Tyr1173) in A431 cells, antibody at 10 µg/mL": "≥ 70"}
{"binder": "B4", "inhibition of EGFR tyrosine phosphorylation (P-Tyr1173) in A431 cells, antibody at 10 µg/mL": "≥ 70"}
{"binder": "B5", "inhibition of EGFR tyrosine phosphorylation (P-Tyr1173) in A431 cells, antibody at 10 µg/mL": "≥ 70"}
{"binder": "B6", "inhibition of EGFR tyrosine phosphorylation (P-Tyr1173) in A431 cells, antibody at 10 µg/mL": "≥ 70"}
{"target": "T1, G79A-substituted human TGF-α expressed on 293T cells (human, UniProt P01135 24-160)", "T1 construct": "Made from pDIG-TGF-α (positions 1 to 160); also called G79A substitution analog; G79A-substituted TGF-α", "experiment": "flow cytometry on 293T cells", "protocol": "(§1) After washed with a wash buffer twice, the cells were allowed to react with a 200-fold diluted PE-labeled anti-mouse IgG antibody (MBL CO., LTD.) at 4° C. for 60 minutes."}
{"binder": "B1", "binding result": "no binding (tested: 5 µg/mL)"}
{"binder": "B7", "binding result": "no binding (tested: 5 µg/mL)"}
{"binder": "B2", "binding result": "no binding (tested: 5 µg/mL)"}
{"binder": "B8", "binding result": "no binding (tested: 5 µg/mL)"}
{"binder": "B3", "binding result": "no binding (tested: 5 µg/mL)"}
{"binder": "B4", "binding result": "no binding (tested: 5 µg/mL)"}
{"binder": "B5", "binding result": "no binding (tested: 5 µg/mL)"}
{"binder": "B6", "binding result": "no binding (tested: 5 µg/mL)"}
{"target": "T2, H74A-substituted human TGF-α expressed on 293T cells (human, UniProt P01135 24-160)", "T2 construct": "Made from pDIG-TGF-α (positions 1 to 160); also called H74A substitution analog", "experiment": "flow cytometry on 293T cells", "protocol": "as §1"}
{"binder": "B1", "binding result": "binds"}
{"binder": "B7", "binding result": "binds"}
{"binder": "B2", "binding result": "binds"}
{"binder": "B8", "binding result": "binds"}
{"binder": "B3", "binding result": "binds"}
{"binder": "B4", "binding result": "binds"}
{"binder": "B5", "binding result": "binds"}
{"binder": "B6", "binding result": "binds"}
{"target": "T3, TGF-α-hFc (human, UniProt P01135 40-89)", "T3 construct": "not shown: Fc portion of human immunoglobulin G1, fused on the C-terminal side", "experiment": "solid phase ELISA, TGFα-hFc on plate", "units": {"OD (solid phase ELISA)": "OD"}}
{"binder": "B1", "OD (solid phase ELISA)": 0.869}
{"binder": "B7", "OD (solid phase ELISA)": 1.11}
{"binder": "B2", "OD (solid phase ELISA)": 0.703}
{"binder": "B8", "OD (solid phase ELISA)": 0.879}
{"binder": "B3", "OD (solid phase ELISA)": 0.65}
{"binder": "B4", "OD (solid phase ELISA)": 1.04}
{"binder": "B5", "OD (solid phase ELISA)": 0.745}
{"binder": "B6", "OD (solid phase ELISA)": 0.704}
{"target": "T4, proTGF-α-hFc (human, UniProt P01135 24-89)", "T4 construct": "not shown: Fc portion of human immunoglobulin G1, fused on the C-terminal side", "experiment": "solid phase ELISA, proTGFα-hFc on plate", "units": {"OD (solid phase ELISA)": "OD"}}
{"binder": "B1", "OD (solid phase ELISA)": 1.37}
{"binder": "B7", "OD (solid phase ELISA)": 1.59}
{"binder": "B2", "OD (solid phase ELISA)": 1.51}
{"binder": "B8", "OD (solid phase ELISA)": 1.51}
{"binder": "B3", "OD (solid phase ELISA)": 1.42}
{"binder": "B4", "OD (solid phase ELISA)": 1.45}
{"binder": "B5", "OD (solid phase ELISA)": 1.4}
{"binder": "B6", "OD (solid phase ELISA)": 1.35}
{"target": "T5, transmembrane TGF-α (human TGF-α positions 1 to 160) expressed on 293T cells (human, UniProt P01135 24-160)", "T5 construct": "also called TGF-α/293T; TGFα/293T", "T5 sequence": "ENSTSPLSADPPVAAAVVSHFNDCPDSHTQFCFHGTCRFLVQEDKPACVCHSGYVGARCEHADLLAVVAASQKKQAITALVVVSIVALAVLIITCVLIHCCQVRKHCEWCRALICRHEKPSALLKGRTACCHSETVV", "experiment": "flow cytometry, culture supernatant on transmembrane TGF-α/293T"}
{"binder": "B9", "binding result": "binds"}
{"binder": "B10", "binding result": "binds"}
{"binder": "B11", "binding result": "binds"}
{"binder": "B12", "binding result": "binds"}
{"binder": "B13", "binding result": "binds"}
{"binder": "B14", "binding result": "binds"}
{"binder": "B15", "binding result": "binds"}
{"binder": "B16", "binding result": "binds"}
